Test results as given in patent publication US20140120095A1 (Boehringer Ingelheim, published 2014).

T1: recombinant human VEGF121 (human, UniProt P15692-9 27-147)
T1 construct: also called rhVEGF121
T1 sequence (looked up): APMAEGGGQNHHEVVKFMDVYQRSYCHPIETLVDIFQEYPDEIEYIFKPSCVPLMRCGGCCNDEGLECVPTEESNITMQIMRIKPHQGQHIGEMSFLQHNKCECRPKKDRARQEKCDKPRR

T2: recombinant mouse VEGF164 (mouse, UniProt Q00731-2 27-190, biotinylated as the labelled ligand of the mVEGF164/mVEGFR2 AlphaScreen)
T2 construct: also called mVEGF164; rmVEGF164
T2 sequence (looked up): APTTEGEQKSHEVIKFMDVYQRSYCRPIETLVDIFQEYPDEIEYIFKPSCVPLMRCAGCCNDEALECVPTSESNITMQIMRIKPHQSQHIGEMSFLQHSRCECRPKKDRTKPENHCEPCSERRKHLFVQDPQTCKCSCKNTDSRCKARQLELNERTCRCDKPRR


What was measured:
[1] = molecular target: T3, human DLL4, full length, overexpressed on cells (human, UniProt Q9NR61 27-685); assay: FMAT, hNotch1-Fc on CHO-hDLL4, -HSA
T3 construct: CHO cells in FMAT, HEK293 cells in the reporter assay; also called hDLL4; CHO-hDLL4

[2] = molecular target: T3, human DLL4, full length, overexpressed …; assay: FMAT, hNotch1-Fc on CHO-hDLL4, +25 uM HSA
[3] = molecular target: T4, recombinant human VEGF165 (human, UniProt P15692-4 27-191, biotinylated in the competition assays); assay: AlphaScreen, hVEGF165/hVEGFR1-Fc competition, -HSA
T4 construct: Bought protein; also called hVEGF165; rhVEGF165

[4] = molecular target: T4, recombinant human VEGF165; assay: AlphaScreen, hVEGF165/hVEGFR2-Fc competition, -HSA
[5] = molecular target: T4, recombinant human VEGF165; assay: AlphaScreen, hVEGF165/hVEGFR2-Fc competition, +5 uM HSA
Procedure: These 2 competition assays are also performed after preincubation of the VHHs with 5 μM human serum albumin.

[6] = molecular target: VEGF (UniProt P15692-4 27-191, limits assumed); assay: cell-based or functional assay
[7] = molecular target: DII4-His (C-terminal His-tagged human DII4, amino acid 27-524) (human, UniProt Q9NR61 25-522); assay: cell-based or functional assay
[8] = molecular target: T5, VEGF (used to stimulate HUVEC cells) (UniProt P15692-4 27-191, limits assumed); assay: cell-based or functional assay
[9] = molecular target: T5, VEGF (used to stimulate HUVEC cells); assay: cell-based or functional assay; remark: listed apart in the source
[10] = molecular target: T4, recombinant human VEGF165; assay: binding ELISA, coated rhVEGF165
[11] = molecular target: T1, recombinant human VEGF121; assay: binding ELISA, coated rhVEGF121
Procedure: Binding to recombinant human VEGF121 is assessed via a solid phase binding ELISA. […] Wells are blocked with a casein solution (1% in PBS).

[12] = molecular target: T4, recombinant human VEGF165; assay: ELISA, hVEGF165/hVEGFR2-Fc competition; design: % inhibition: concentration or dose not given beside the values
[13] = molecular target: T4, recombinant human VEGF165; assay: ELISA, hVEGF165/hVEGFR1-Fc competition; design: % inhibition: concentration or dose not given beside the values
[14] = molecular target: T4, recombinant human VEGF165; assay: AlphaScreen, hVEGF165/hVEGFR2-Fc competition; design: % inhibition: concentration or dose not given beside the values
Procedure: (§1) Finally, streptavidin donor beads (20 μg/ml) are added and after 1 hour of incubation in the dark, fluorescence is measured on the Envision microplate reader.

[15] = molecular target: T4, recombinant human VEGF165; assay: AlphaScreen, hVEGF165/hVEGFR1-Fc competition; design: % inhibition: concentration or dose not given beside the values
Procedure: as §1

[16] = molecular target: T4, recombinant human VEGF165; assay: SPR Biacore, immobilised hVEGF165, two state reaction model
Procedure: Samples are injected for 2 min and allowed to dissociate up to 20 min at a flow rate of 45 μl/min. In between sample injections, the chip surface is regenerated with 100 mM HCl. HBS-EP+(Hepes buffer pH7.4+EDTA) is used as running buffer. Binding curves are fitted using a Two State Reaction model by Biacore T100 Evaluation Software v2.0.1.
^{(a)}KD = kd1/kₐ₁ * (kd2/(kd2 + kₐ₂)) ^{(b)}Curves are fitted using a Two State Reaction model by Biacore T100 Evaluation Software v2.0.1

[17] = molecular target: T2, recombinant mouse VEGF164; assay: binding ELISA on coated recombinant mouse VEGF164 (Example 12.6), OD 450 nm
Procedure: Cross-reactivity to mouse VEGF164 is determined using a binding ELISA. […] Wells are blocked with a casein solution (1% in PBS). […] A mouse VEGF164 reactive mAb is included as positive control.

[18] = molecular target: T4, recombinant human VEGF165; assay: AlphaScreen, hVEGF165/hVEGFR1-Fc competition
Procedure: as §1

[19] = molecular target: T4, recombinant human VEGF165; assay: AlphaScreen, hVEGF165/hVEGFR2-Fc competition
Procedure: as §1

T5 sequence (P15692 other isoform, or with tags, fused parts or gaps limits assumed): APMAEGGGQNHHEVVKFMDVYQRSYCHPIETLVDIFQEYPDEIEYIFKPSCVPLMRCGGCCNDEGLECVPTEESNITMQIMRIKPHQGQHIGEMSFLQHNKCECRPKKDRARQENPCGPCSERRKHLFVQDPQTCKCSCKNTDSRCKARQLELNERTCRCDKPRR
VEGF, sequence (P15692 other isoform, or with tags, fused parts or gaps limits assumed): as above

Row | IC50 [1] [nM] | IC50 [2] [nM] | % inhibition, VEGF HUVEC Erk phosphorylation assay [9] [%] | IC50, VEGF HUVEC Erk phosphorylation assay [9] [nM] | EC50 [10] [nM] | EC50 [11] [nM] | % inhibition [12] [%] | IC50 [12] [nM] | % inhibition [14] [%] | IC50 [14] [nM] | % inhibition [15] [%] | IC50 [15] [nM] | Kd [16] [nM] | ka1 [16] [M⁻¹ s⁻¹] | ka2 [16] [s⁻¹] | kd1 [16] [s⁻¹] | kd2 [16] [s⁻¹] | binding result [17] | Binder | also measured
1 | 128 | 122 | – | – | – | – | – | – | – | – | – | – | – | – | – | – | – | – | VEGFDLLBII001 (bispecific antibody, PEGylated at the Cys at position 15 of the 35 Gly-Ser linker, DLLBII101G08 - 35GS(Cys15) - VEGFBII23B04) EVQLVESGGGLVQAGGSLRLSCAASGRTFSSYAMAWFRQAPGKEREFVAAIRWSGGTAYYADSVQGRFTISRDNAKNTVYLQMNSLKPEDTAVYYCANRAADTRLGPYEYDYWGQGTQVTVSSGGGGSGGGGSGGGGCGGGGSGGGGSGGGGSGGGGSEVQLVESGGGLVQTGDSLRLSCEVSGRTFSSYSMGWFRQAQGKEREFVVAISKGGYKYDSVSLEGRFTISKDNAKNTVYLQINSLKPEDTAVYYCASSRAYGSSRLRLADTYEYWGQGTQVTVSS | % inh [3]: 69%; IC50 [3]: 1.58 nM; % inh [4]: 100%; IC50 [4]: 0.64 nM; % inh [5]: 100%; IC50 [5]: 0.64 nM
2 | 106 | 120 | – | – | – | – | – | – | – | – | – | – | – | – | – | – | – | – | VEGFDLLBII002 (bispecific antibody, PEGylated at the Cys at position 15 of the 35 Gly-Ser linker, VEGFBII23B04 - 35GS(Cys15) - DLLBII101G08) EVQLVESGGGLVQTGDSLRLSCEVSGRTFSSYSMGWFRQAQGKEREFVVAISKGGYKYDSVSLEGRFTISKDNAKNTVYLQINSLKPEDTAVYYCASSRAYGSSRLRLADTYEYWGQGTQVTVSSGGGGSGGGGSGGGGCGGGGSGGGGSGGGGSGGGGSEVQLVESGGGLVQAGGSLRLSCAASGRTFSSYAMAWFRQAPGKEREFVAAIRWSGGTAYYADSVQGRFTISRDNAKNTVYLQMNSLKPEDTAVYYCANRAADTRLGPYEYDYWGQGTQVTVSS | % inh [3]: 64%; IC50 [3]: 0.36 nM; % inh [4]: 100%; IC50 [4]: 0.2 nM; % inh [5]: 100%; IC50 [5]: 0.24 nM

Continued, binder first:

Row | Binder | IC50 [1] [nM] | IC50 [2] [nM] | % inhibition, VEGF HUVEC Erk phosphorylation assay [9] [%] | IC50, VEGF HUVEC Erk phosphorylation assay [9] [nM] | EC50 [10] [nM] | EC50 [11] [nM] | % inhibition [12] [%] | IC50 [12] [nM] | % inhibition [14] [%] | IC50 [14] [nM] | % inhibition [15] [%] | IC50 [15] [nM] | Kd [16] [nM] | ka1 [16] [M⁻¹ s⁻¹] | ka2 [16] [s⁻¹] | kd1 [16] [s⁻¹] | kd2 [16] [s⁻¹] | binding result [17] | also measured
3 | DLLBII101G08 (VHH, not shown: small tags and cut ends, Anti-DLL4 VHH; also called 101G8) VHH: EVQLVESGGGLVQAGGSLRLSCAASGRTFSSYAMAWFRQAPGKEREFVAAIRWSGGTAYYADSVQGRFTISRDNAKNTVYLQMNSLKPEDTAVYYCANRAADTRLGPYEYDYWGQGTQVTVSS | 31 | 30.1 | – | – | – | – | – | – | – | – | – | – | – | – | – | – | – | – | –
4 | VEGFDLLBII015 (bispecific antibody, PEGylated 35gs, cys15 linker (PEG on the Cys at position 15 of the 35 Gly-Ser linker; size of the PEG not stated)) EVQLVESGGGLVQTGDSLRLSCEVSGRTFSSYSMGWFRQAQGKEREFVVAISKGGYKYDSVSLEGRFTISKDNAKNTVYLQINSLKPEDTAVYYCASSRAYGSSRLRLADTYEYWGQGTQVTVSSGGGGSGGGGSGGGGCGGGGSGGGGSGGGGSGGGGSEVQLVESGGGLVQPGGSLRLSCVASGIRFMSMAWYRQAPGKHRELVARISSGGTTAYVDSVKGRFTISRDNSKNTVYLQMNSLKAEDTAVYYCNTFSSRPNPWGAGTQVTVSSGGGGSGGGGSGGGGSGGGGSGGGGSGGGGSGGGGSEVQLVESGGGLVQAGGSLRLSCAASGRTFSSYAMAWYRQAPGKEREYVAAIRWSGGTAYYADSVQGRFTISRDNAKNTVYLQMNSLKPEDTAVYYCANRAPDTRLAPYEYDHWGQGTQVTVSS | – | – | – | – | – | – | – | – | – | – | – | – | – | – | – | – | – | – | % inhibition, VEGF HUVEC Erk phosphorylation assay, -HSA [6]: 106%; IC50 (nM), VEGF HUVEC Erk phosphorylation assay, -HSA [6]: 0.4 nM; IC50 (nM), DII4-mediated HUVEC proliferation assay, -HSA [7]: 0.28 nM
5 | VEGFBII010 (VHH, not shown: small tags and cut ends, Homodimeric bivalent anti-VEGF VHH; also called VEGFBII23B04-35GS-23B04) EVQLVESGGGLVQTGDSLRLSCEVSGRTFSSYSMGWFRQAQGKEREFVVAISKGGYKYDSVSLEGRFTISKDNAKNTVYLQINSLKPEDTAVYYCASSRAYGSSRLRLADTYEYWGQGTQVTVSSGGGGSGGGGSGGGGSGGGGSGGGGSGGGGSGGGGSEVQLVESGGGLVQTGDSLRLSCEVSGRTFSSYSMGWFRQAQGKEREFVVAISKGGYKYDSVSLEGRFTISKDNAKNTVYLQINSLKPEDTAVYYCASSRAYGSSRLRLADTYEYWGQGTQVTVSS | – | – | 92 | 0.19 | 0.428 | 0.92 | 100 | 0.049 | 100 | 0.016 | 70 | 0.021 | 0.16 | 450000 | 0.029 | 0.017 | 0.00013 | binds | % inhibition, VEGF HUVEC proliferation assay [8]: 95%; IC50, VEGF HUVEC proliferation assay [8]: 0.22 nM; % inhibition [13]: 67%; IC50 [13]: 0.0735 nM
6 | VEGFBII025 (VHH, not shown: small tags and cut ends, Bivalent anti-VEGF VHH; also called VEGFBII10E07-40GS-23B04) EVQLVESGGGLVQAGGSLRLSCAASGRTFSNYAMGWFRQAPGKERVLVADISSSGINTYVADAVKGRFTISRDNAKNTVYLQMNSLKPEDTAVYYCAASAWWYSQMARDNYRYWGQGTQVTVSSGGGGSGGGGSGGGGSGGGGSGGGGSGGGGSGGGGSGGGGSEVQLVESGGGLVQTGDSLRLSCEVSGRTFSSYSMGWFRQAQGKEREFVVAISKGGYKYDSVSLEGRFTISKDNAKNTVYLQINSLKPEDTAVYYCASSRAYGSSRLRLADTYEYWGQGTQVTVSS | – | – | 99 | 0.23 | 0.668 | 0.475 | 100 | 0.577 | 100 | 0.051 | 82 | 0.071 | 1.1 | 330000 | 0.018 | 0.017 | 0.00037 | binds | % inhibition [18]: 82%; IC50 [18]: 0.039 nM; IC50 [19]: 0.051 nM
7 | VEGFBII024 (VHH, not shown: small tags and cut ends, Bivalent anti-VEGF VHH; also called VEGFBII23B04-40GS-86H09) EVQLVESGGGLVQTGDSLRLSCEVSGRTFSSYSMGWFRQAQGKEREFVVAISKGGYKYDSVSLEGRFTISKDNAKNTVYLQINSLKPEDTAVYYCASSRAYGSSRLRLADTYEYWGQGTQVTVSSGGGGSGGGGSGGGGSGGGGSGGGGSGGGGSGGGGSGGGGSEVQLVESGGGLVQAGGSLRLSCTASGSAFKSYRMGWFRRTPGKEDEFVASISWTYGSTFYADSVKGRFTMSRDKAKNAGYLQMNSLKPEDTALYYCAAGAQSDRYNIRSYDYWGQGTQVTVSS | – | – | 94 | 0.23 | 0.32 | 0.325 | 100 | 0.292 | 100 | 0.05 | 98 | 0.069 | 0.47 | 300000 | 0.026 | 0.013 | 0.00028 | binds | % inhibition, VEGF HUVEC proliferation assay [8]: 96%; IC50, VEGF HUVEC proliferation assay [8]: 0.38 nM; % inhibition [13]: 92%; IC50 [13]: 0.326 nM; % inhibition [18]: 100%; IC50 [18]: 0.046 nM; IC50 [19]: 0.012 nM
